Reference: article PMC10715038 (Microbiology Spectrum, 2023)

Molecular target: T1, SARS-CoV-2 WHU01 Spike RBD, monomeric (SARS-CoV-2, UniProt P0DTC2)
T1 construct: not shown: Fc (human IgG1), C-terminal, cleaved
Assay: SPR
Details: both partners purified

B1: Cattle ACE2-huFc (soluble cattle ACE2 ectodomain, human IgG1 Fc fusion) (Fc fusion)
chain: QSTTEEQAKTFLEKFNHEAEDLSYQSSLASWNYNTNITDENVQKMNEARAKWSAFYEEQSRMAKTYSLEEIQNLTLKRQLKALQHSGTSALSAEKSKRLNTILNKMSTIYSTGKVLDPNTQECLALEPGLDDIMENSRDYNRRLWAWEGWRAEVGKQLRPLYEEYVVLENEMARANNYEDYGDYWRGDYEVTGAGDYDYSRDQLMKDVERTFAEIKPLYEQLHAYVRAKLMHTYPSYISPTGCLPAHLLGDMWGRFWTNLYSLTVPFEHKPSIDVTEKMENQSWDAERIFKEAEKFFVSISLPYMTQGFWDNSMLTEPGDGRKVVCHPTAWDLGKGDFRIKMCTKVTMDDFLTAHHEMGHIQYDMAYAAQPYLLRNGANEGFHEAVGEIMSLSAATPHYLKALGLLAPDFHEDNETEINFLLKQALTIVGTLPFTYMLEKWRWMVFKGEIPKQQWMEKWWEMKREIVGVVEPLPHDETYCDPACLFHVAEDYSFIRYYTRTIYQFQFHEALCKTAKHEGALFKCDISNSTEAGQRLLQMLRLGKSEPWTLALENIVGIKTMDVKPLLNYFEPLFTWLKEQNRNSFVGWSTEWTPYSDQSIKVRISLKSALGENAYEWNDNEMYLFQSSVAYAMRKYFSEARNETVLFGEDNVWVSDKKPRISFKFFVTSPNNVSDIIPRTEVENAIRLSRDRINDVFQLDDNSLEFLGIQPTLGPPYEPPVTI
Kd: 700 nM
koff: 0.066 s⁻¹
kon: 94000 M⁻¹ s⁻¹
